B1: FAM164C (parent)
chain: YPHCTGISQQDPESDSQGQGNGLF
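Note: lentivirally expressed fusions sorted by FACS into six bins by GFP to DsRed ratio, PSI derived from sequencing read proportions per bin multiplied by bin number.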

In the data set the parent is B1. Kind of data set: protein stability index of a GFP-peptide fusion (GPS, HEK-293T) (PSI 1-6); higher = more stable. The settings on record: c terminus: a fixed tail appended.
As to YPHCTGISQQDPESDSAGQGNGLF [Q17A], the protein stability index turned out to be 3.88.

For the variant YPHCTGISQQDPESDSHGQGNGLF [Q17H], the protein stability index worked out at 3.36.

In the case of YPHCTGISQQDPESDSVGQGNGLF [Q17V], the protein stability index was 3.4.

On to YPHCTGISQQDPESDSFGQGNGLF [Q17F], for which the protein stability index came out at 2.81.

With YPHCTGISQQDPESDSTGQGNGLF [Q17T], the protein stability index was 3.64.

As for YPHCTGISQQDPESDSMGQGNGLF [Q17M], the protein stability index is 3.8.

YPHCTGISQQDPESDSSGQGNGLF [Q17S]: the protein stability index was determined as 3.79.

As to YPHCTGISQQDPESDSWGQGNGLF [Q17W], the protein stability index stood at 2.97.

Turning to YPHCTGISQQDPESDSCGQGNGLF [Q17C], the protein stability index was found to be 3.39.

As for YPHCTGISQQDPESDSNGQGNGLF [Q17N], the protein stability index came to 4.14.

On to YPHCTGISQQDPESDSRGQGNGLF [Q17R], for which the protein stability index turned out to be 3.71.

With YPHCTGISQQDPESDSYGQGNGLF [Q17Y], the protein stability index was found to be 3.02.

In the case of YPHCTGISQQDPESDSIGQGNGLF [Q17I], the protein stability index was found to be 3.42.

YPHCTGISQQDPESDSGGQGNGLF [Q17G]: the protein stability index came out at 3.74.

Regarding YPHCTGISQQDPESDSEGQGNGLF [Q17E], the protein stability index came out at 4.4.

In the case of YPHCTGISQQDPESDSKGQGNGLF [Q17K], the protein stability index was 3.51.

As for YPHCTGISQQDPESDSLGQGNGLF [Q17L], the protein stability index came out at 2.96.

As to YPHCTGISQQDPESDSDGQGNGLF [Q17D], the protein stability index turned out to be 3.26.

As to YPHCTGISQQDPESDSPGQGNGLF [Q17P], the protein stability index is 3.6.

For YPHCTGISQQDPESDSQGQINGLF [G20I], the protein stability index was 3.02.

Consider YPHCTGISQQDPESDSQGQANGLF [G20A], for which the protein stability index was 3.12.

For YPHCTGISQQDPESDSQGQKNGLF [G20K], the protein stability index was 3.66.

For the variant YPHCTGISQQDPESDSQGQMNGLF [G20M], the protein stability index worked out at 3.9.

Regarding YPHCTGISQQDPESDSQGQNNGLF [G20N], the protein stability index turned out to be 3.48.

For the variant YPHCTGISQQDPESDSQGQCNGLF [G20C], the protein stability index is 3.57.

For the variant YPHCTGISQQDPESDSQGQRNGLF [G20R], the protein stability index was determined as 3.65.

Turning to YPHCTGISQQDPESDSQGQFNGLF [G20F], the protein stability index was determined as 2.56.

For YPHCTGISQQDPESDSQGQHNGLF [G20H], the protein stability index was found to be 3.08.

Consider YPHCTGISQQDPESDSQGQDNGLF [G20D], for which the protein stability index is 4.39.

Consider YPHCTGISQQDPESDSQGQQNGLF [G20Q], for which the protein stability index turned out to be 3.79.

With YPHCTGISQQDPESDSQGQLNGLF [G20L], the protein stability index amounted to 3.11.

Turning to YPHCTGISQQDPESDSQGQPNGLF [G20P], the protein stability index came out at 3.59.

For YPHCTGISQQDPESDSQGQENGLF [G20E], the protein stability index was 4.33.

Consider YPHCTGISQVDPESDSQGQGNGLF [Q10V], for which the protein stability index stood at 3.74.

Turning to YPHCTGISQWDPESDSQGQGNGLF [Q10W], the protein stability index amounted to 2.87.

As for YPHCTGISQYDPESDSQGQGNGLF [Q10Y], the protein stability index was determined as 3.07.

For YPHCTGISQQDPESDDQGQGNGLF [S16D], the protein stability index came out at 4.24.

For YPHCTGISQQDPESDEQGQGNGLF [S16E], the protein stability index was found to be 4.16.

With YPHCTGISQQDPESDVQGQGNGLF [S16V], the protein stability index was determined as 3.69.

Turning to YPHCTGISQQDPESDRQGQGNGLF [S16R], the protein stability index stood at 3.31.

Consider YPHCTGISQQDPESDWQGQGNGLF [S16W], for which the protein stability index worked out at 2.76.

Take YPHCTGISQQDPESDHQGQGNGLF [S16H]: the protein stability index was determined as 3.78.

Consider YPHCTGISQQDPESDPQGQGNGLF [S16P], for which the protein stability index is 3.92.

In the case of YPHCTGISQQDPESDLQGQGNGLF [S16L], the protein stability index was 2.74.

As to YPHCTGISQQDPESDCQGQGNGLF [S16C], the protein stability index is 3.35.

Turning to YPHCTGISQQDPESDNQGQGNGLF [S16N], the protein stability index is 4.18.

Take YPHCTGISQQDPESDAQGQGNGLF [S16A]: the protein stability index is 3.71.

In the case of YPHCTGISQQDPESDYQGQGNGLF [S16Y], the protein stability index is 3.44.

Take YPHCTGISQQDPESDKQGQGNGLF [S16K]: the protein stability index amounted to 3.61.

On to YPHCTGISQQDPESDTQGQGNGLF [S16T], for which the protein stability index turned out to be 3.73.

In the case of YPHCTGISQQDPESDGQGQGNGLF [S16G], the protein stability index is 3.71.

As for YPHCTGISQQDPESDFQGQGNGLF [S16F], the protein stability index came to 3.13.

On to YPHCTGISQQDPESDMQGQGNGLF [S16M], for which the protein stability index was determined as 3.62.

As for YPHCTGISQQDPESDQQGQGNGLF [S16Q], the protein stability index is 3.8.

For YPHCTGISQQDPESDIQGQGNGLF [S16I], the protein stability index was 3.1.

As for YPHCTGISQQDPESDSQGNGNGLF [Q19N], the protein stability index came out at 3.66.

Regarding YPHCTGISQQDPESDSQGRGNGLF [Q19R], the protein stability index came to 3.51.

For YPHCTGISQQDPESDSQGPGNGLF [Q19P], the protein stability index came out at 3.86.

Turning to YPHCTGISQQDPESDSQGAGNGLF [Q19A], the protein stability index stood at 3.87.

On to YPHCTGISQQDPESDSQGGGNGLF [Q19G], for which the protein stability index worked out at 4.21.

As to YPHCTGISQQDPESDSQGHGNGLF [Q19H], the protein stability index was 3.64.

In the case of YPHCTGISQQDPESDSQGKGNGLF [Q19K], the protein stability index was found to be 3.85.

On to YPHCTGISQQDPESDSQGYGNGLF [Q19Y], for which the protein stability index came to 3.36.

For YPHCTGISQQDPESDSQGDGNGLF [Q19D], the protein stability index was determined as 4.1.

For YPHCTGISQQDPESDSQGIGNGLF [Q19I], the protein stability index was 3.26.

For the variant YPHCTGISQQDPESDSQGSGNGLF [Q19S], the protein stability index stood at 3.9.

As for YPHCTGISQQDPESDSQGLGNGLF [Q19L], the protein stability index was 3.3.

Take YPHCTGISQQDPESDSQGTGNGLF [Q19T]: the protein stability index is 3.81.

With YPHCTGISQQDPESDSQGEGNGLF [Q19E], the protein stability index was found to be 4.21.

In the case of YPHCTGISQQDPESDSQGMGNGLF [Q19M], the protein stability index worked out at 3.22.

In the case of YPHCTGISQQDPESDSQGCGNGLF [Q19C], the protein stability index is 3.24.

Regarding YPHCTGISQQDPESDSQGWGNGLF [Q19W], the protein stability index came to 2.75.

For the variant YPHCTGISQQDPESDSQGFGNGLF [Q19F], the protein stability index turned out to be 2.88.

Turning to YPHCTGISQQDPESDSQGVGNGLF [Q19V], the protein stability index was 3.52.

For YPHCTGISQQDEESDSQGQGNGLF [P12E], the protein stability index amounted to 4.08.

In the case of YPHCTGISQQDHESDSQGQGNGLF [P12H], the protein stability index was 3.73.

For YPHCTGISQQDDESDSQGQGNGLF [P12D], the protein stability index was 3.91.

Consider YPHCTGISQQDMESDSQGQGNGLF [P12M], for which the protein stability index turned out to be 3.6.

Consider YPHCTGISQQDIESDSQGQGNGLF [P12I], for which the protein stability index came to 3.51.

On to YPHCTGISQQDSESDSQGQGNGLF [P12S], for which the protein stability index was 3.98.

With YPHCTGISQQDFESDSQGQGNGLF [P12F], the protein stability index worked out at 3.56.

In the case of YPHCTGISQQDNESDSQGQGNGLF [P12N], the protein stability index worked out at 3.48.

As to YPHCTGISQQDAESDSQGQGNGLF [P12A], the protein stability index was found to be 3.95.

Regarding YPHCTGISQQDGESDSQGQGNGLF [P12G], the protein stability index amounted to 3.45.

YPHCTGISQQDTESDSQGQGNGLF [P12T]: the protein stability index came to 3.74.

In the case of YPHCTGISQQDYESDSQGQGNGLF [P12Y], the protein stability index was 3.54.

For YPHCTGISQQDCESDSQGQGNGLF [P12C], the protein stability index stood at 3.77.

For the variant YPHCTGISQQDKESDSQGQGNGLF [P12K], the protein stability index was 3.57.

Turning to YPHCTGISQQDQESDSQGQGNGLF [P12Q], the protein stability index was 3.71.

In the case of YPHCTGISQQDVESDSQGQGNGLF [P12V], the protein stability index worked out at 3.96.

Consider YPHCTGISQQDLESDSQGQGNGLF [P12L], for which the protein stability index was 3.65.

For the variant YPHCTGISQQDWESDSQGQGNGLF [P12W], the protein stability index worked out at 3.27.

For YPHCTGISQQDRESDSQGQGNGLF [P12R], the protein stability index worked out at 3.18.

YPHCTGISQQDPESGSQGQGNGLF [D15G]: the protein stability index was 2.94.

These data come from the supplement of paper PMC10567573.
